Results as given in article PMC6511404 (Biochemistry, 2019).

Target: the molecule itself
Assay: SEC

B1: recombinant N-terminal cleavable His-tagged E. coli enolase (enzyme)
chain: MSKIVKIIGREIIDSRGNPTVEAEVHLEGGFVGMAAAPSGASTGSREALELRDGDKSRFLGKGVTKAVAAVNGPIAQALIGKDAKDQAGIDKIMIDLDGTENKSKFGANAILAVSLANAKAAAAAKGMPLYEHIAELNGTPGKYSMPVPMMNIINGGEHADNNVDIQEFMIQPVGAKTVKEAIRMGSEVFHHLAKVLKAKGMNTAVGDEGGYAPNLGSNAEALAVIAEAVKAAGYELGKDITLAMDCAASEFYKDGKYVLAGEGNKAFTSEEFTHFLEELTKQYPIVSIEDGLDESDWDGFAYQTKVLGDKIQLVGDDLFVTNTKILKEGIEKGIANSILIKFNQIGSLTETLAAIKMAKDAGYTAVISHRSGETEDATIADLAVGTAAGQIKTGSMSRSDRVAKYNQLIRIEEALGEKAPYNGRKEIKGQA
stoichiometry N: 2
